Reference: patent US20260209362A1 (VIB VZW, published 2026)
Positions count from the first letter of the chain named. Each block holds one binder with its values, some of them ahead of it.

How the values were obtained:
[1] = molecular target: T1, biotinylated recombinant mouse IL-12Rβ2 (produced in-house) (mouse, UniProt P97378 24-637, randomly biotinylated); experiment: ELISA, periplasmic extract on biotinylated mouse IL-12Rβ2; control streptavidin-coated blocked wells
T1 construct: also called mIL-12RB2; mouse IL-12RB2
T1 sequence: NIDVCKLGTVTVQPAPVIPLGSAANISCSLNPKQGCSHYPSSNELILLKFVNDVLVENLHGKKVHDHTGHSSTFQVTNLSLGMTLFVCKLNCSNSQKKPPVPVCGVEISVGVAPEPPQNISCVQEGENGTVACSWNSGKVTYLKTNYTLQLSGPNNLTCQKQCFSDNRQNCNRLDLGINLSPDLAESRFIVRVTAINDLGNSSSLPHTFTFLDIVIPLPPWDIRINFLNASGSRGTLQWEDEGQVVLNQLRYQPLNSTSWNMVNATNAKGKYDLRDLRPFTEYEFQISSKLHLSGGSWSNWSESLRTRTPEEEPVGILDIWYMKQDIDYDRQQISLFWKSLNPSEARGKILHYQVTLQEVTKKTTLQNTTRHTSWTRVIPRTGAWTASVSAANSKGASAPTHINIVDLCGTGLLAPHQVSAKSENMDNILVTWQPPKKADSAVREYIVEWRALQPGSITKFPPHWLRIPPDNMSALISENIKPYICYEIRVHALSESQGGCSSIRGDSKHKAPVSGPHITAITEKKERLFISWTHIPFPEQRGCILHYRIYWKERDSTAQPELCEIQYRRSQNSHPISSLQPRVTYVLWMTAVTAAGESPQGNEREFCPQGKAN

[2] = molecular target: T2, biotinylated recombinant human IL-12Rβ2 (produced in-house) (human, UniProt Q99665 24-622, randomly biotinylated); experiment: ELISA, periplasmic extract on biotinylated human IL-12Rβ2; control streptavidin-coated blocked wells
T2 construct: also called hIL-12RB2; human IL-12RB2
T2 sequence: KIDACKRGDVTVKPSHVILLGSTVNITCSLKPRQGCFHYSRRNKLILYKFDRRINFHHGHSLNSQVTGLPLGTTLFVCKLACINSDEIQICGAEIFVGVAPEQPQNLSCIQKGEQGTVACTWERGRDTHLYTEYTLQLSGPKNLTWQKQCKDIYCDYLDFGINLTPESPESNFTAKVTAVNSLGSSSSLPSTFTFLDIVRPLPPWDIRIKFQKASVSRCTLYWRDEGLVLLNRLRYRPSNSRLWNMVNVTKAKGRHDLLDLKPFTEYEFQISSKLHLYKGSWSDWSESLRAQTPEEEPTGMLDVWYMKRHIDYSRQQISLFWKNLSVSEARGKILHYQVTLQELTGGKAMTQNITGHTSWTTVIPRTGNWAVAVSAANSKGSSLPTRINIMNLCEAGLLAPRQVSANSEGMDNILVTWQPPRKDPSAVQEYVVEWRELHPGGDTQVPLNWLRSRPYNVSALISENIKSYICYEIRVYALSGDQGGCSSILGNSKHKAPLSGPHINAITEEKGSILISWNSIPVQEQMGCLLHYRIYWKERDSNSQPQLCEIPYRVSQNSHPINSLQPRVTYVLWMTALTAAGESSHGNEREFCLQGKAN

[3] = molecular target: T3, mouse IL-12Rβ2 (mouse, UniProt P97378 24-874); experiment: flow cytometry, P.E. on transfected HEK293T cells
T3 construct: Expressed on HEK293T cells transiently transfected with a pcDNA3 plasmid (Genscript clone OMu01776); also called mIL-12RB2; NP_032380.1
T3 sequence: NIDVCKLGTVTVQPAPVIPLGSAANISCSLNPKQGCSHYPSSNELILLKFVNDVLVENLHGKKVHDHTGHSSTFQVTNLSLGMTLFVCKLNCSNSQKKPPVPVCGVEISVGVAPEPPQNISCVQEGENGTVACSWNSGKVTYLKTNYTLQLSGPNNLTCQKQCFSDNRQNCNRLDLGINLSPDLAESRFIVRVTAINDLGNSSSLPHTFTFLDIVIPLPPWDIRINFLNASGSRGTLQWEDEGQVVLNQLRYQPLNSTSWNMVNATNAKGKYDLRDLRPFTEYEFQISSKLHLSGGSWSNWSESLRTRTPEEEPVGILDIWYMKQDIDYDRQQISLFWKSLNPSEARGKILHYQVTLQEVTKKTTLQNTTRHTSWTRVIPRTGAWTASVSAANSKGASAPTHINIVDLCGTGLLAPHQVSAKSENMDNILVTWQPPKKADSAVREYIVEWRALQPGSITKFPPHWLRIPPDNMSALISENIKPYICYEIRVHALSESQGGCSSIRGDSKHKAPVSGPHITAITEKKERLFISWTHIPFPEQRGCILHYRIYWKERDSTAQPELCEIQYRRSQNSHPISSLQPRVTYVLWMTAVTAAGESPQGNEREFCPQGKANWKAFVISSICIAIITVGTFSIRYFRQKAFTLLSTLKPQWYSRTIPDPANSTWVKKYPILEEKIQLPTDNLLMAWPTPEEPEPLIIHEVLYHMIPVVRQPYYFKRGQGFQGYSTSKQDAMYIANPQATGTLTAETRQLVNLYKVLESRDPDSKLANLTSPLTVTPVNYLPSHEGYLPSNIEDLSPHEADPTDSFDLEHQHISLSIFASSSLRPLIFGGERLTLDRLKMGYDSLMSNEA

[4] = molecular target: T4, human IL-12Rβ2 (human, UniProt Q99665 24-862); experiment: flow cytometry, P.E. on transfected HEK293T cells
T4 construct: Expressed on HEK293T cells transiently transfected with a pcDNA3 plasmid (Genscript clone OHu21785); also called hIL-12RB2; IL-12 receptor β2 subunit
T4 sequence: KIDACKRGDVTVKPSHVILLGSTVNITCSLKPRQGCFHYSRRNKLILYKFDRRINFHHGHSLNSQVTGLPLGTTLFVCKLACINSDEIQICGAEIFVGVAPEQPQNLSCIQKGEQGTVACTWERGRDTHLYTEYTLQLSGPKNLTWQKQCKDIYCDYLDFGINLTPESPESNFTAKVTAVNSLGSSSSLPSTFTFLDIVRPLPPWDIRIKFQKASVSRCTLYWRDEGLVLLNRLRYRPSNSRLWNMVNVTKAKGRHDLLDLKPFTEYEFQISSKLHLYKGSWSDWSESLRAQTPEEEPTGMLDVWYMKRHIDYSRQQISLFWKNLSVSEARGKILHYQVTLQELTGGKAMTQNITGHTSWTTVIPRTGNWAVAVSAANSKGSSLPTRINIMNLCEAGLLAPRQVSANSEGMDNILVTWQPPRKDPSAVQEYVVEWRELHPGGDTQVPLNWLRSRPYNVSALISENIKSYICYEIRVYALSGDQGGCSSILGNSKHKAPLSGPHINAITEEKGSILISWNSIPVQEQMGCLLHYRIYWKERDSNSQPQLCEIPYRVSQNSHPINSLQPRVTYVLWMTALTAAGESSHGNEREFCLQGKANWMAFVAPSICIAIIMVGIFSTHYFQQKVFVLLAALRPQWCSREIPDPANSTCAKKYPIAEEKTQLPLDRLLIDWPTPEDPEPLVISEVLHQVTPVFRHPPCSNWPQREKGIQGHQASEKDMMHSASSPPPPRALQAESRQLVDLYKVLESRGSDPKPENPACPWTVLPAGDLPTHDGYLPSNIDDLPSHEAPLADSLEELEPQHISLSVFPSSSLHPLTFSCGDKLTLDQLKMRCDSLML

- ELISA binding mIL-12RB2/control [1]: 5.86 ratio to control
- ELISA binding hIL-12RB2/control [2]: 0.993 ratio to control
B1: anti-IL-12Rβ2 VHH clone 2CRM40 (VHH)
VHH: QVQLQESGGGLVQTGGSLRLSCAASGRTYAMAWFRQAPGKEREFAAVIIGGDRTYYANSVKDRFTISRDNAKETVYLQMNNLKPEDTAVYYCAANRRLYNSGRGYSQSEYEYWGQGTQVTVSS
notes: Tested as periplasmic extract; CDR3 group 24; also called 20448

- ELISA binding mIL-12RB2/control [1]: 62.3 ratio to control
- ELISA binding hIL-12RB2/control [2]: 0.998 ratio to control
B2: anti-IL-12Rβ2 VHH clone 2CAM88 (VHH)
VHH: QVQLQESGGGLVPPGDSLRLSCAASGRTFSSYTMGWFRQAPGKEREFVARISQDGGSTYYADSMKGRFTVARDNAKNTVYLQMNSLKPEDTAVYYCAADMIKWGLRVGVDSFKYWGQGTQVTVSS
notes: Tested as periplasmic extract; CDR3 group 17

- ELISA binding mIL-12RB2/control [1]: 4.91 ratio to control
- ELISA binding hIL-12RB2/control [2]: 0.969 ratio to control
B3: anti-IL-12Rβ2 VHH clone 2CAM47 (VHH)
VHH: QVQLQESGGGVVQEGASLRLSCAASGRNLSTYAMGWIRQAPGKEREFVAAISWAGSTTYYADSVKGRFIISRDNAKNTLNLQMNSLKPEDTAVYYCAAPPYVTTTYYATPPSDIRDYHYWGQGTQVTVSS
notes: Tested as periplasmic extract; CDR3 group 27; also called 20487

- ELISA binding mIL-12RB2/control [1]: 6.6 ratio to control
- ELISA binding hIL-12RB2/control [2]: 1.31 ratio to control
B4: anti-IL-12Rβ2 VHH clone 3CAM11 (VHH)
VHH: B3 VHH with V11L, E14A, A16G
notes: Tested as periplasmic extract; CDR3 group 27; also called 20508

- ELISA binding mIL-12RB2/control [1]: 8.27 ratio to control
- ELISA binding hIL-12RB2/control [2]: 1.09 ratio to control
B5: anti-IL-12Rβ2 VHH clone 2CAM9 (VHH)
VHH: QVQLQESGGGLVQAGMSLRLSCAASGLTFSWYRMGWFRQAPGKEREFVAGWYGVLTQYRDSVKGRFTISRDDAKNTVYLQMNSLKPEDTAVYYCAASLGGNYRSYEYDYWGQGTQVTVSS
notes: Tested as periplasmic extract; CDR3 group 19

- ELISA binding mIL-12RB2/control [1]: 3.38 ratio to control
- ELISA binding hIL-12RB2/control [2]: 0.9 ratio to control
B6: anti-IL-12Rβ2 VHH clone 2CAM12 (VHH)
VHH: B5 VHH with M16G, L27R
notes: as for B5

- ELISA binding hIL-12RB2/control [2]: 1.38 ratio to control
B7: anti-IL-12Rβ2 VHH clone 3CRM66 (VHH)
VHH: QVQLQESGGGLVQPGGSLRLSCAASGSTFSIHAMGWYRQAPGKKRELVARITRGGSTNYADSVKGRFTISVDNAKNTVYLQMNSLKPEDTAVYDCNAETGWGEWDDYWGQGTQVTVSS
notes: Tested as periplasmic extract; CDR3 group 42; also called 20461

- ELISA binding mIL-12RB2/control [1]: 9.78 ratio to control
- ELISA binding hIL-12RB2/control [2]: 1.01 ratio to control
B8: anti-IL-12Rβ2 VHH clone 3CAMS63 (VHH)
VHH: QVQLQESGGGLVQAGGSLRLSCAASGRTFSNYAMGWFRQAPGKEREFVAAINRSGTTLYVDSVKGRFTISRDNAKNTVALQMNSLKPEDTAVYYCVAGMPFSYSDYPRDSKYDYWGQGTQVTVSS
notes: Tested as periplasmic extract; CDR3 group 26; also called 20552

- ELISA binding mIL-12RB2/control [1]: 40.9 ratio to control
- ELISA binding hIL-12RB2/control [2]: 1.14 ratio to control
B9: anti-IL-12Rβ2 VHH clone 3CAM10 (VHH)
VHH: QVQLQESGGGLVQAGGSLRLSCAASGRTFSDYPMAWFRQAPGKEREFVAGISNGGTAYYADSVKGRFTISRDNTRNTVYLQMNRLKVEDTAVYYCAAVHLLSNLRGADPHEADYWGQGTQVTVSS
notes: Tested as periplasmic extract; CDR3 group 25; also called 20507

- % cells bound [3]: 10.4%
- dMFI [3]: 357
- % cells bound [4]: 19.5%
- dMFI [4]: 397
B10: anti-IL-12Rβ2 VHH clone 3CRHM73 (VHH, not shown: small tags and cut ends)
VHH: QVQLQESGGGLVQAGGSLSLSCAASGSAFRLNFMGWYRQAPGKQRELVAAINSGGTEIYHDSVKGRFTISRDNADSTVWLQMNSLKPDDTAVYYCAADRGISWSKLAGGMDYWGKGTQVTVSS
notes: periplasmic extract; also called 21060

- ELISA binding mIL-12RB2/control [1]: 13.5 ratio to control
- ELISA binding hIL-12RB2/control [2]: 1 ratio to control
B11: anti-IL-12Rβ2 VHH clone 2CRM28 (VHH)
VHH: QVQLQESGGGLVQPGGSLRLSCAASGRAWNEYNMGWFRQAPGKEREFVALIWWSSGNTYYADSVKGRFTISRDKVKNTVYLQMNSLKPEDTAVYYCAAGPTFNKYEYWGQGTQVTVSS
notes: Tested as periplasmic extract; CDR3 group 40

- ELISA binding mIL-12RB2/control [1]: 3.73 ratio to control
- ELISA binding hIL-12RB2/control [2]: 0.873 ratio to control
B12: anti-IL-12Rβ2 VHH clone 2CRM88 (VHH)
VHH: QVQLQESGGGLVQAGGSLRLSCQASGRTFSNYRMGWFRQAPGKEREFVAGINWDGGHTYYTDSVKGRFTISRDNAKNTVYLQMNSLKPEDTAVYQCAVRVREYGSSRYEDQFDYWGQGTQVTVSS
notes: Tested as periplasmic extract; CDR3 group 18; also called 20453

- ELISA binding mIL-12RB2/control [1]: 6.09 ratio to control
- ELISA binding hIL-12RB2/control [2]: 0.942 ratio to control
B13: anti-IL-12Rβ2 VHH clone 2CRM42 (VHH)
VHH: B12 VHH with A14P, G16E
notes: Tested as periplasmic extract; CDR3 group 18; also called 20449

- ELISA binding mIL-12RB2/control [1]: 4.12 ratio to control
- ELISA binding hIL-12RB2/control [2]: 0.947 ratio to control
B14: anti-IL-12Rβ2 VHH clone 2CRM16 (VHH)
VHH: B12 VHH with Q23A
notes: Tested as periplasmic extract; CDR3 group 18

- ELISA binding mIL-12RB2/control [1]: 5.21 ratio to control
- ELISA binding hIL-12RB2/control [2]: 0.918 ratio to control
B15: anti-IL-12Rβ2 VHH clone 2CAM56 (VHH)
VHH: QVQLQESGGGEVQAGGSLRLSCVASGRTFSVYTTGWFRQAPGKERELVAGMSGTRTYYADSVKGRFTISRDNAKNTVYLQMNSLKPDDTAVYYCAERRYGGPSLVWDEYDYRGQGTQVTVSS
notes: Tested as periplasmic extract; CDR3 group 28; also called 20490

- ELISA binding mIL-12RB2/control [1]: 7.74 ratio to control
- ELISA binding hIL-12RB2/control [2]: 0.87 ratio to control
B16: anti-IL-12Rβ2 VHH clone 2CAM67 (VHH)
VHH: B15 VHH with L47F
notes: Tested as periplasmic extract; CDR3 group 28; also called 20494
